Reference: article PMC12441935, “De novo designed 3-helix bundle peptides and proteins with controlled topology and stability” (Chemical Science, 2025)

Molecular target: the molecule itself
Assay: AUC; sedimentation velocity and sedimentation equilibrium of the individual peptides N and N′, 20 °C

Protein | stoichiometry N
KLAALEKKLAALEKKTAALEYKLAAL [apCCTri-N] | 3
ELAALKEELAALKEETAALKYELAAL [apCCTri-N′] | 3
